Reference: the supplement of paper PMC7877785
± gives the uncertainty stated by the source.

Assay: self-splicing fitness, log relative to wild type (ln ratio); higher = more splicing; Tetrahymena group I intron in knt gene, E. coli kanamycin selection, DiMSum; sequences stand for … in CUCUCU…GGAGGGAAAAGUUAUCAGGCAUGCACCUGGUAGCUAGUCUUUAAACCAAUAGAUUGCAUCGGUUUAAAAGGCAAGACCGUCAAAUUGCGGGAAAGGGGUCAACAGCCGUUCAGUACCAAGUCUCAGGGGAAACUUUGAGAUGGCCUUGCAAAGGGUAUGGUAAUAAGCUGACGGACAUGGUCCUAACCACGCAGCCAAGUCCUAAGUCAACAGAUCUUCUGUUGAUAUGGAUGCAGUUCACAGACUAAAUGUCGGUCGGGGAAGAUGUAUUCUUCUCAUAAGAUAUAGUCGGACCUCUCCUUAAUGGGAGCUAGCGGAUGAAGUGAUGCAACACUGGAGCCGCUGGGAACUAAUUUGUAUGCGAAAGUAUAUUGAUUAGUUUUGGAGUACUCGUGGUCG
How it was run: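 The eight P1ex-region nucleotides of an intron in the knt kanamycin-resistance gene on pET-22b(+) were all randomised and the library put into E. coli BL21(DE3). Six replicate transformations were grown overnight at 37°C or 30°C on LB agar with or without 25 μg/mL kanamycin, together with 100 μg/mL carbenicillin, 50 μM IPTG and 0.2% rhamnose. Colonies were pooled and amplicon-sequenced on an Illumina HiSeq 2500. Fitness from DiMSum is the error-weighted combination of wild-type-normalised replicate fold changes, kanamycin over none.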

ACCGAGCAAUAUUACGGCCU
self-splicing fitness (ln) (30 °C): -0.622 ± 0.086
self-splicing fitness (ln) (37 °C): 0.418 ± 0.11

ACCGAGCAAUAUUACGGCGG
self-splicing fitness (ln) (30 °C): -3.59 ± 0.3
self-splicing fitness (ln) (37 °C): -2.58 ± 0.39

ACCGAGCAAUAUUACGGGAU
self-splicing fitness (ln) (30 °C): -3.29 ± 0.13
self-splicing fitness (ln) (37 °C): -2.5 ± 0.15

ACCGAGCAAUAUUACGGGCA
self-splicing fitness (ln) (30 °C): -0.957 ± 0.1
self-splicing fitness (ln) (37 °C): -0.109 ± 0.11

ACCGAGCAAUAUUACGGGUG
self-splicing fitness (ln) (30 °C): -1.43 ± 0.061
self-splicing fitness (ln) (37 °C): -1.08 ± 0.068

ACCGAGCAAUAUUACGUACA
self-splicing fitness (ln) (30 °C): -2.64 ± 0.27
self-splicing fitness (ln) (37 °C): -2.04 ± 0.27

ACCGAGCAAUAUUACGUAGU
self-splicing fitness (ln) (30 °C): -3.62 ± 0.18
self-splicing fitness (ln) (37 °C): -2.26 ± 0.15

ACCGAGCAAUAUUACGUAUC
self-splicing fitness (ln) (37 °C): -2.59 ± 0.25

ACCGAGCAAUAUUACGUCAA
self-splicing fitness (ln) (30 °C): -3.16 ± 0.19
self-splicing fitness (ln) (37 °C): -2.36 ± 0.3

ACCGAGCAAUAUUACGUCGC
self-splicing fitness (ln) (30 °C): -3.69 ± 0.28

ACCGAGCAAUAUUACGUGGC
self-splicing fitness (ln) (30 °C): -4.18 ± 0.2
self-splicing fitness (ln) (37 °C): -2.21 ± 0.18

ACCGAGCAAUAUUACGUGUU
self-splicing fitness (ln) (30 °C): -3.76 ± 0.19
self-splicing fitness (ln) (37 °C): -2.65 ± 0.24

ACCGAGCAAUAUUACGUUGA
self-splicing fitness (ln) (30 °C): -2.98 ± 0.17
self-splicing fitness (ln) (37 °C): -2.59 ± 0.21

ACCGAGCAAUAUUACGUUGG
self-splicing fitness (ln) (30 °C): -4.16 ± 0.27
self-splicing fitness (ln) (37 °C): -2.41 ± 0.22

ACCUAGCAAUAUUACGAAAA
self-splicing fitness (ln) (30 °C): -2.66 ± 0.18
self-splicing fitness (ln) (37 °C): -1.7 ± 0.13

ACCUAGCAAUAUUACGAACU
self-splicing fitness (ln) (30 °C): -0.308 ± 0.084
self-splicing fitness (ln) (37 °C): 0.0875 ± 0.11

ACCUAGCAAUAUUACGACGU
self-splicing fitness (ln) (30 °C): -0.142 ± 0.071
self-splicing fitness (ln) (37 °C): 0.371 ± 0.084

ACCUAGCAAUAUUACGAGGU
self-splicing fitness (ln) (30 °C): -3.09 ± 0.17
self-splicing fitness (ln) (37 °C): -2.43 ± 0.17

ACCUAGCAAUAUUACGCAAC
self-splicing fitness (ln) (30 °C): -1.98 ± 0.16
self-splicing fitness (ln) (37 °C): -0.895 ± 0.094

ACCUAGCAAUAUUACGCCAA
self-splicing fitness (ln) (30 °C): -3.4 ± 0.27
self-splicing fitness (ln) (37 °C): -2.09 ± 0.23

ACCUAGCAAUAUUACGCCCU
self-splicing fitness (ln) (30 °C): -0.142 ± 0.12
self-splicing fitness (ln) (37 °C): -0.462 ± 0.14

ACCUAGCAAUAUUACGCCUG
self-splicing fitness (ln) (30 °C): -2.69 ± 0.19
self-splicing fitness (ln) (37 °C): -1.66 ± 0.22

ACCUAGCAAUAUUACGCGAA
self-splicing fitness (ln) (30 °C): -3.01 ± 0.19
self-splicing fitness (ln) (37 °C): -1.99 ± 0.12

ACCUAGCAAUAUUACGCGUA
self-splicing fitness (ln) (30 °C): -2.46 ± 0.17
self-splicing fitness (ln) (37 °C): -1.22 ± 0.11

ACCUAGCAAUAUUACGGCUA
self-splicing fitness (ln) (30 °C): -2.93 ± 0.13
self-splicing fitness (ln) (37 °C): -2.65 ± 0.17

ACCUAGCAAUAUUACGGUAU
self-splicing fitness (ln) (30 °C): -3.08 ± 0.14
self-splicing fitness (ln) (37 °C): -1.44 ± 0.11

ACCUAGCAAUAUUACGGUUC
self-splicing fitness (ln) (30 °C): -4.77 ± 0.34
self-splicing fitness (ln) (37 °C): -2.62 ± 0.24

ACCUAGCAAUAUUACGGUUU
self-splicing fitness (ln) (30 °C): -1.85 ± 0.065
self-splicing fitness (ln) (37 °C): -0.482 ± 0.087

ACCUAGCAAUAUUACGUAGU
self-splicing fitness (ln) (30 °C): -2.07 ± 0.09
self-splicing fitness (ln) (37 °C): -0.568 ± 0.081

ACCUAGCAAUAUUACGUCCU
self-splicing fitness (ln) (30 °C): -0.685 ± 0.067
self-splicing fitness (ln) (37 °C): -0.579 ± 0.075

ACCUAGCAAUAUUACGUCUC
self-splicing fitness (ln) (30 °C): -1.59 ± 0.096
self-splicing fitness (ln) (37 °C): -0.658 ± 0.14

ACCUAGCAAUAUUACGUUGU
self-splicing fitness (ln) (30 °C): -1.79 ± 0.066
self-splicing fitness (ln) (37 °C): -1.12 ± 0.082

ACCUAGCAAUAUUACGUUUC
self-splicing fitness (ln) (30 °C): -3.55 ± 0.13
self-splicing fitness (ln) (37 °C): -1.94 ± 0.13

ACGAAGCAAUAUUACGAAGC
self-splicing fitness (ln) (30 °C): -3.6 ± 0.27
self-splicing fitness (ln) (37 °C): -2.61 ± 0.3

ACGAAGCAAUAUUACGAAGU
self-splicing fitness (ln) (30 °C): -3.44 ± 0.16
self-splicing fitness (ln) (37 °C): -2.86 ± 0.2

ACGAAGCAAUAUUACGACGG
self-splicing fitness (ln) (30 °C): -1.2 ± 0.12
self-splicing fitness (ln) (37 °C): -0.994 ± 0.094

ACGAAGCAAUAUUACGAGAU
self-splicing fitness (ln) (30 °C): -4.36 ± 0.17
self-splicing fitness (ln) (37 °C): -1.79 ± 0.16

ACGAAGCAAUAUUACGAUGA
self-splicing fitness (ln) (30 °C): -1.88 ± 0.18
self-splicing fitness (ln) (37 °C): -1.29 ± 0.17

ACGAAGCAAUAUUACGCAGC
self-splicing fitness (ln) (30 °C): -2.47 ± 0.21
self-splicing fitness (ln) (37 °C): -0.916 ± 0.18

ACGAAGCAAUAUUACGCCCC
self-splicing fitness (ln) (30 °C): -0.521 ± 0.21
self-splicing fitness (ln) (37 °C): -2.24 ± 0.39

ACGAAGCAAUAUUACGCGCG
self-splicing fitness (ln) (30 °C): -0.867 ± 0.12
self-splicing fitness (ln) (37 °C): -0.486 ± 0.18

ACGAAGCAAUAUUACGCUUU
self-splicing fitness (ln) (30 °C): -3.88 ± 0.22
self-splicing fitness (ln) (37 °C): -2.63 ± 0.22

ACGAAGCAAUAUUACGGCUC
self-splicing fitness (ln) (30 °C): -3.05 ± 0.22
self-splicing fitness (ln) (37 °C): -1.62 ± 0.23

ACGAAGCAAUAUUACGGCUU
self-splicing fitness (ln) (30 °C): -3.97 ± 0.24
self-splicing fitness (ln) (37 °C): -2.76 ± 0.22

ACGAAGCAAUAUUACGGGCC
self-splicing fitness (ln) (30 °C): -2.74 ± 0.15
self-splicing fitness (ln) (37 °C): -1.7 ± 0.14

ACGAAGCAAUAUUACGGUGA
self-splicing fitness (ln) (30 °C): -2.33 ± 0.088
self-splicing fitness (ln) (37 °C): -1.48 ± 0.085

ACGAAGCAAUAUUACGUACC
self-splicing fitness (ln) (30 °C): -1.3 ± 0.14
self-splicing fitness (ln) (37 °C): -1.17 ± 0.19

ACGAAGCAAUAUUACGUAUU
self-splicing fitness (ln) (30 °C): -3.11 ± 0.087
self-splicing fitness (ln) (37 °C): -2.18 ± 0.093
